{"source": "paper PMC3962080", "origin": "cited, not measured here", "biological_target": "human serum albumin (Homo sapiens) (UniProt P02768)", "note": "pKd: −log10 of the molar value."}
{"substance": "G148-ABD albumin-binding domain (from UniProt P06654)", "values": [{"measurement": "pKd", "value": 8.30}]}
